For assay [1], the target named is T1, CD94/NKG2A on the cell surface (human, UniProt Q13241 1-179).
T1 construct: whole, on cells; also called Ba/F3-CD94/NKG2A; NKG2A+ cells
The assay can be described thus: flow cytometry (MESF), titration in human whole blood, gated on NKG2A+ lymphocytes. From the text: The affinity and total number of receptors may impact both pharmacokinetics (PK) and pharmacodynamics (PD) of the mAb in humans. […] Human whole blood was collected from each donor and processed immediately.
A general note: A flow cytometer gives signals particle by particle.

The target in assay [2] is T1, CD94/NKG2A on the cell surface. The assay can be described thus: cell-based or functional assay.
T1 sequence (chain, as listed by the source limits assumed, chain 1 of 2): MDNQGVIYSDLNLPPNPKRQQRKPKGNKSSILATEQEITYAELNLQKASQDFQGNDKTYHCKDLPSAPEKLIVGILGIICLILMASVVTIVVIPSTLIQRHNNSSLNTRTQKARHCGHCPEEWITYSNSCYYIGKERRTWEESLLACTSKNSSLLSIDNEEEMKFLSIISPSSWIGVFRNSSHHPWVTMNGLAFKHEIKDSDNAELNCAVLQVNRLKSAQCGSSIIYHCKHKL
T1 sequence (Q13241 whole entry, chain 2 of 2): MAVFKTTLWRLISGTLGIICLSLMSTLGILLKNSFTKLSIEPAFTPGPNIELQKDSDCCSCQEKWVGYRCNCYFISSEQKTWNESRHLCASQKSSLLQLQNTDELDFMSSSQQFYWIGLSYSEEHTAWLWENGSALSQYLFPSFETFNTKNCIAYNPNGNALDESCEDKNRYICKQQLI
Assay [3] has the same target. The assay can be described thus: flow cytometry, titration on purified human NK cells; four-parameter fit, median of 5 donors. How it is done:
Purified NK cells were prepared from frozen PBMC: Human NK purification with Stem Sep system, and cultured O/N in complete medium supplemented with 10 IU/ml recombinant IL-2. PBMC were prepared from collected blood. Blood was qualified for transfusion, donors were thus anonymous and supposedly healthy. PBMC were prepared, aliquoted and stored in nitrogen tanks prior to the study.
Calculations of Kd for receptor saturation and EC₅₀ for CD107 mobilization were performed in GraphPad Prism software using a non-linear regression fit with four parameters.

Assay [4] has as its target T2, single-chain NKG2A-CD94-mFc construct (human, UniProt Q13241 32-179, limits assumed).
T2 construct: The order here follows the printed name only; also called recombinant NKG2A; not shown: mouse Fc (mFc)
Kind of assay: SPR, Biacore T100; antigen amine-coupled to a CM5 chip, antibody injected at 0.157-2.5 nM. Here is the method: Heavy chain frameworks included “VH1” based on VH1_18/JH6; “VH5” based on VH5_a; “VH6” based on VH5_51; “VH7” based on VH1_f; and “VH8” based on VH1_46, all with a JH6 J-segment. The antigen-binding properties were analyzed on a Biacore T100 (Biacore AB, Uppsala, Sweden). The antigen was in the form of a single-chain NKG2A-CD94-mFc construct was covalently immobilized on the sensor CM5 chip (Biacore AB, Uppsala, Sweden) via amine groups using 1-ethyl-3-(3-dimethylaminopropyl) carbodiimide hydrochloride (EDC) and N-hydroxysuccinimide (NHS). The immobilization level was targeted at 300 RU. Z270 antibody variants were diluted to a concentration series (0.157, 0.313, 0.625, 1.25, 2.5 nM) in the running buffer HBS-EP (10 mM HEPES pH 7.4, 150 mM NaCl, 3 mM EDTA, 0.005% (v/v) Tween-20). All the samples were then injected over the immobilized antigen for 2 min at the flow rate of 40 ul/min. Subsequently, the running buffer was injected for 3 min at 40 ul/min for antibody dissociation analysis. After each run, the regeneration buffer (10 mM NaOH, 500 mM NaCl) was injected (30 seconds, 10 ul/min) to completely strip the remaining antibodies off the antigen. Data were evaluated with Biacore T100 evaluation software.
(In general: SPR reads the build-up and loss of mass on a sensor chip optically.)

As a reminder, the EC50 is the concentration giving half of the maximal effect. A lower EC50 goes with higher potency in that assay. As usually defined, the Kd is the concentration at which binding is half-saturated. A low value points to a tighter complex. One may read the koff as a measure of how fast the partners let go of each other. A low value points to slow dissociation. Usually kon stands for a measure of how fast the partners come together.

T1 sequence (chain, as listed by the source limits assumed, chain 1 of 2): as the sequence (chain, as listed by the source limits assumed, chain 1 of 2) above
T1 sequence (Q13241 whole entry, chain 2 of 2): as the sequence (Q13241 whole entry, chain 2 of 2) above
T2 sequence (Q13241 other isoform, or with tags, fused parts or gaps limits assumed): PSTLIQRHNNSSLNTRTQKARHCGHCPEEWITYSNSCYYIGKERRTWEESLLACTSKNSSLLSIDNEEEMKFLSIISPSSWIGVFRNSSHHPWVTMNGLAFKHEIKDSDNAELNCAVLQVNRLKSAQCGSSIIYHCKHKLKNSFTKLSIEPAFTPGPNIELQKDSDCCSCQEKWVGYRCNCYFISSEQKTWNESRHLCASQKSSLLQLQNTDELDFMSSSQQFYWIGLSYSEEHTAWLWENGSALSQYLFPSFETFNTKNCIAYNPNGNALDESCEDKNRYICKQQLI

B1: humZ270VL1/VH1 (antibody, human IgG4 S228P, kappa, V domains shown)
VH: QVQLVQSGAEVKKPGASVKVSCKASGYTFTSYWMNWVRQAPGQGLEWMGRIDPYDSETHYAQKLQGRVTMTTDTSTSTAYMELRSLRSDDTAVYYCARGGYDFDVGTLYWFFDVWGQGTTVTVSS
VL: DIQMTQSPSSLSASVGDRVTITCRASENIYSYLAWYQQKPGKAPKLLIYNAKTLAEGVPSRFSGSGSGTDFTLTISSLQPEDFATYYCQHHYGTPRTFGGGTKVEIKR
notes: also called humanized Z270 VH1; humZ270 VH1
Regarding B1, in assay [1], the EC50 is around 4 ng/mL, the “KD for full receptor occupancy (the EC100)” value was around 100 ng/mL and the Kd was around 4 ng/mL. In assay [2], the “EC50 concentration in the CD107 mobilization assay (purified NK cells against autologous SEB blasts)” value was around 400 ng/ml, the “EC50 for CD107 mobilization on K562-HLA-E transfectants” value is 4100 ng/mL and the “median EC50 for CD107 mobilization (autologous SEB blasts)” value is 0.4 µg/ml. In addition, the affinity in assay [3], expressed as Kd, was 5 ng/mL. In addition, in assay [4], the Kd came out at 0.0665 nM, the koff is 0.000498 s⁻¹ and the kon came to 7.49e+06 M⁻¹ s⁻¹.

Source of the values: patent publication US20240368281A1 (INNATE PHARMA, published 2024).
